B1: Erenumab HIC-HPLC Pre-peak Fraction F1 (antibody, human IgG2, lambda, V domains shown)
VH: QVQLVESGGGVVQPGRSLRLSCAASGFTFSSFGMHWVRQAPGKGLEWVAVISFDGSIKYSVDSVKGRFTISRDNSKNTLFLQMNSLRAEDTAVYYCARDRLNYYDSSGYYHYKYYGMAVWGQGTTVTVSS
VL: QSVLTQPPSVSAAPGQKVTISCSGSSSNIGNNYVSWYQQLPGTAPKLLIYDNNKRPSGIPDRFSGSKSGTSTTLGITGLQTGDEADYYCGTWDSRLSAVVFGGGTKLTVLG
modifications: Asp105 isomerization 0.6%; Asp105 succinimide 0.2%; Asn102 deamidation ND; Leu195/Ser196 cleavage 10.9%; further cleavage sites Leu315/Thr316, Ser197/Val198, Leu192/Tyr193, Gly108/Tyr109, Asp105/Ser106
B2: Erenumab HIC-HPLC Main Fraction F5 (antibody, human IgG2, lambda, V domains shown)
VH: B1 VH
VL: B1 VL
modifications: Asp105 isomerization ND; Asp105 succinimide 0.1%; Asn102 deamidation ND; Leu195/Ser196 cleavage 0.3%
B3: Erenumab HIC-HPLC Pre-peak Fraction F4 (antibody, human IgG2, lambda, V domains shown)
VH: B1 VH
VL: B1 VL
modifications: Asp105 isomerization (isoAsp) 5.5%; Asp105 succinimide 4.3%; Asn102 deamidation 11.6%; Leu195/Ser196 cleavage 0.4%
B4: Erenumab HIC-HPLC Pre-peak Fraction F3 (antibody, human IgG2, lambda, V domains shown)
VH: B1 VH
VL: B1 VL
modifications: Asp105 isomerization (isoAsp) 19.6%; Asp105 succinimide 12.6%; Asn102 deamidation 1.2%; Leu195/Ser196 cleavage 0.5%
B5: Erenumab HIC-HPLC Post-peak Fraction F7 (antibody, human IgG2, lambda, V domains shown)
VH: B1 VH
VL: B1 VL
modifications: Asp105 isomerization (isoAsp) 2.4%; Asp105 succinimide 0.1%; Asn102 deamidation ND; Leu195/Ser196 cleavage 1.1%
B6: Erenumab HIC-HPLC Post-peak Fraction F6 (antibody, human IgG2, lambda, V domains shown)
VH: B1 VH
VL: B1 VL
modifications: Asp105 isomerization (isoAsp) 13.2%; Asp105 succinimide 0.1%; Asn102 deamidation ND; Leu195/Ser196 cleavage 0.6%
B7: Erenumab HIC-HPLC Pre-peak Fraction F2 (antibody, human IgG2, lambda, V domains shown)
VH: B1 VH
VL: B1 VL
modifications: Asp105 isomerization (isoAsp) 26.4%; Asp105 succinimide 1.4%; Asn102 deamidation 0.1%; Leu195/Ser196 cleavage 1.0%
B8: Erenumab CEX-HPLC Acidic Fraction F3 (antibody, human IgG2, lambda, V domains shown)
VH: B1 VH
VL: B1 VL
modifications: disulfide isoforms by RP-HPLC: 11.2% IgG2-B, 55.1% IgG2-A/B, 32.4% IgG2-A
B9: Erenumab CEX-HPLC Main Fraction F5 (antibody, human IgG2, lambda, V domains shown)
VH: B1 VH
VL: B1 VL
modifications: disulfide isoforms by RP-HPLC: 2.9% IgG2-B, 33.9% IgG2-A/B, 62.4% IgG2-A
B10: Erenumab CEX-HPLC Acidic Fraction F4 (antibody, human IgG2, lambda, V domains shown)
VH: B1 VH
VL: B1 VL
modifications: disulfide isoforms by RP-HPLC: 7.0% IgG2-B, 52.5% IgG2-A/B, 39.4% IgG2-A
B11: Erenumab CEX-HPLC Basic Fraction F8 (antibody, human IgG2, lambda, V domains shown)
VH: B1 VH
VL: B1 VL
modifications: disulfide isoforms by RP-HPLC: 2.0% IgG2-B, 23.3% IgG2-A/B, 73.3% IgG2-A
B12: Erenumab CEX-HPLC Basic Fraction F7 (antibody, human IgG2, lambda, V domains shown)
VH: B1 VH
VL: B1 VL
modifications: disulfide isoforms by RP-HPLC: 3.9% IgG2-B, 28.6% IgG2-A/B, 65.4% IgG2-A
B13: Erenumab CEX-HPLC Acidic Fraction F2 (antibody, human IgG2, lambda, V domains shown)
VH: B1 VH
VL: B1 VL
modifications: disulfide isoforms by RP-HPLC: 21.4% IgG2-B, 40.4% IgG2-A/B, 35.8% IgG2-A
B14: Erenumab CEX-HPLC Main Fraction F6 (antibody, human IgG2, lambda, V domains shown)
VH: B1 VH
VL: B1 VL
modifications: disulfide isoforms by RP-HPLC: 3.9% IgG2-B, 27.8% IgG2-A/B, 65.5% IgG2-A
B15: Erenumab CEX-HPLC Basic Fraction F9 (antibody, human IgG2, lambda, V domains shown)
VH: B1 VH
VL: B1 VL
modifications: disulfide isoforms by RP-HPLC: 11.0% IgG2-B, 31.3% IgG2-A/B, 55.9% IgG2-A
B16: Erenumab SE-UHPLC Fraction HMW 1 (antibody, human IgG2, lambda, V domains shown)
VH: B1 VH
VL: B1 VL
B17: Erenumab SE-UHPLC Fraction HMW 2 (antibody, human IgG2, lambda, V domains shown)
VH: B1 VH
VL: B1 VL
B18: Erenumab SE-UHPLC Fraction Main (antibody, human IgG2, lambda, V domains shown)
VH: B1 VH
VL: B1 VL

Target: T1, human CGRP receptor (human, UniProt Q16602 23-461; O60894 27-148)
Test: cell-based or functional assay

T1 sequence (Q16602 23-461, chain 1 of 2): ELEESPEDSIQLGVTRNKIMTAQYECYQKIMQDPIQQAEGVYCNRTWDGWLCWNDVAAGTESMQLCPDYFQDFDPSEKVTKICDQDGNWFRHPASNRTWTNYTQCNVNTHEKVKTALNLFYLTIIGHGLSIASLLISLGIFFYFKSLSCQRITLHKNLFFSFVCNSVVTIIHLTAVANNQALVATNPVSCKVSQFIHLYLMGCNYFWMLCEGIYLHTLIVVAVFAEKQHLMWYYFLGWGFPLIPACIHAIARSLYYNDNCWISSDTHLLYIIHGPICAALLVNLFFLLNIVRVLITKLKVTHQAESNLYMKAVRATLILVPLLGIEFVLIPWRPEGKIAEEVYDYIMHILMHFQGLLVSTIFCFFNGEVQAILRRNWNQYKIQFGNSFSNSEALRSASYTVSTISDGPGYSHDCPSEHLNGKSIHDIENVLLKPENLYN
T1 sequence (O60894 27-148, chain 2 of 2): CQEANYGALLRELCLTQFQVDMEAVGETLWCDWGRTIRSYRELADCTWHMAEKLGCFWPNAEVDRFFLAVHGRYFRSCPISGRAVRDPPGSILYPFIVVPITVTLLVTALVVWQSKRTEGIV

Binder	% Relative Potency by Cell-Based Bioassay [%]
B1	33
B2	107
B3	34
B4	35
B5	68
B6	77
B7	24

Target: T1, human CGRP receptor
Test: cell-based or functional assay
Remark: another data set of the same source

Binder	% Relative Potency by Cell-Based Bioassay [%]
B8	71
B9	101
B10	82
B11	102
B12	96
B13	58
B14	92
B15	98

Target: T1, human CGRP receptor
Test: cell-based or functional assay
Remark: another data set of the same source

Binder	% Relative Potency by Cell-Based Bioassay [%]
B16	42
B17	62
B18	97

Reference: patent US20190300617A1 (Amgen, published 2019)
